Laboratory results taken from publication PMC11242853, “The Antimicrobial Activity of Human Defensins at Physiological Non-Permeabilizing Concentrations Is Caused by the Inhibition of the Plasma Membrane H^+-ATPases” (International Journal of Molecular Sciences, 2024).

Assays:
[1] = test system: Candida albicans ATCC 10231; assay: Antimicrobial spread-plate (CFU) killing assay, C. albicans; format: cell-based
Experimental: (§1) To determine whether the above microbicidal concentrations exert a permeabilizing effect on fungal and bacterial membranes, the influx of the fluorescent nucleic acid-binding dye propidium iodide (PI) in cells incubated with the peptides was assessed. In cells, dye uptake reflects membrane permeabilization, as PI itself cannot permeate through an intact phospholipid bilayer. […] To select an antimicrobial but non-permeabilizing concentration of each peptide for further assays, we defined as a non-permeabilizing inhibitory concentration (NPIC) the antimicrobial inhibitory concentration (≤10% viable cells) that permeabilized ≤ 10% of cells incubated (90 min at 37 °C) in buffer solution.
(§2) Microbial susceptibility to the peptides was determined in a spread-plate assay as described previously. Briefly, cell suspensions (10^6 cells/mL) in Tris buffer (10 mM Tris-HCl, pH 7.4) were incubated for 90 min at 37 °C with 2-fold serial peptide dilutions. Peptide concentrations ranged from 0 to 2 μM. After incubation, the number of viable cells was determined by plating aliquots (100 μL) in duplicate on plates (SDA for C. albicans, TSA for P. aeruginosa, and M17G agarified medium for L. lactis) that had been dried for 30 min at room temperature in a laminar flow hood. Plates were incubated for 24–48 h at 30 °C (C. albicans and L. lactis) or 24 h at 37 °C (P. aeruginosa). Dilutions yielding 50–200 colonies were counted. Cell viability values, expressed as colony-forming units (CFUs), were calculated relative to the incubation without added peptides and represent the means ± standard deviation (SD) from duplicates of three independent experiments. For inhibition assays, unless otherwise noted, cell suspensions were preincubated (15 min at 37 °C) with the appropriate inhibitor prior to the addition of peptides, but the inhibitor was present throughout the incubation period with the peptide (90 min at 37 °C). Other specific experimental conditions are described as appropriate. In some experiments, the concentrations of human lactoferrin against C. albicans (5 μM), P. aeruginosa (1 μM), and L. lactis (0.065 μM) were used in the control assays. In various viability assays, BM2 peptide (0.25 μM), CCCP (50 μM), colistin (4 μg/mL), nystatin (50 μM), oligomycin A (16 μg/mL), piericidin A (32 μM), and TEA (10 mM) were used.

[2] = test system: Pseudomonas aeruginosa PAO1; assay: Antimicrobial spread-plate (CFU) killing assay, P. aeruginosa; format: cell-based
Experimental: as §1
as §2, with “In some experiments, the concentrations of human lactoferrin against C. albicans (5 μM), P. aeruginosa (1 μM), and L. lactis (0.065 μM) were used in the control assays. In various viability assays, BM2 peptide (0.25 μM), CCCP (50 μM), colistin (4 μg/mL), nystatin (50 μM), oligomycin A (16 μg/mL), piericidin A (32 μM), and TEA (10 mM) were used.” left out

C. albicans cells [3] = assay: Membrane potential monitoring with DiBAC4(3), flow cytometry; format: cell-based, Candida albicans; conditions: peptides at NPIC, hLf 5 μM, BM2 0.25 μM; DiBAC4(3) 1 µg/mL
Experimental: The membrane potential-sensitive probe DiBAC4(3) was used to monitor the transmembrane electrical potential of C. albicans cells as previously described with slight modifications. Briefly, cells were harvested from mid-log phase cultures via centrifugation and suspended in Tris buffer. The cell suspension was adjusted to 10^6 cells/mL and then incubated with DiBAC4(3) at a final concentration of 1 µg/mL for 30 min. Fluorescence was measured using a CytoFLEX S flow cytometer (Beckman Coulter) with excitation at 561 nm and emission at 690/50 nm. For each treatment, 5000 events were counted per experiment with an exposure time of 1000 ms. Results were analyzed using CytExpert 2.1 Acquisition software. As positive controls, human lactoferrin and BM2 peptide were used. Three independent experiments were performed and data are expressed as means ± SD.

P. aeruginosa cells = assay: Oxygen consumption measurement (polarographic), P. aeruginosa; format: cell-based, Pseudomonas aeruginosa; conditions: after 30 min; defensins 2 x NPIC, human lactoferrin 20 μM, piericidin A 32 µM; preincubated 15 min at 37 °C; untreated cells 83% ± 2%; means ± SD, three experiments
Experimental: (§3) Oxygen consumption by C. albicans and P. aeruginosa cells was determined by polarographically using a biological oxygen monitor (dual digital-model 20; Rank Brothers Ltd., Cambridge, UK) at 25 °C. The apparatus consisted of a twin water-jacketed closed sample chamber, which enabled a control experiment to be conducted concurrently. The cells were grown to mid-log phase in SDB (C. albicans) or TSB (P. aeruginosa), washed twice in Tris buffer, and resuspended in the same buffer. Cell suspensions (approximately 10^7 cells/mL) were preincubated with defensins (2 x NPIC), human lactoferrin (20 μM), or piericidin A (32 μM) for 15 min at 37 °C. Oxygen consumption was recorded at 5-min intervals for a period of 30 min. Three independent experiments were performed, and the data are means ± SD.

C. albicans cells [4] = assay: Extracellular potassium measurement (K+-efflux, ICP-MS); format: cell-based, Candida albicans; conditions: peptides at NPIC / microbicidal concentrations; 10^7 cells/mL, 90 min at 37 °C; steady state compared with maximum intracellular K+ of untreated cells
Experimental: Potassium measurements were performed via inductively coupled plasma mass spectrometry using an Agilent 7700x ICP-MS (Agilent Technologies, Santa Clara, CA, USA). C. albicans cells were cultured in SDB for 16–20 h at 30 °C. The cells were then subcultured in the same media to the mid-logarithmic growth phase and rapidly washed in sterile, deionized, double-distilled water. The cells (10^7 cells/mL) were immediately incubated with the peptides (NPIC) for 90 min at 37 °C. The tubes were centrifuged at 1100× g for 10 min and the supernatants were collected and stored at 4 °C until analysis. The percentage of cytosolic potassium released from cell suspensions treated with nystatin (50 μM) was determined in positive control assays. Total cellular K^+-content (100% value) was measured in the supernatant of cell suspensions previously treated with 0.5% (v/v) HClO4 alone, heated for 1 h at 95 °C, and centrifuged to remove cell debris. Results are expressed as the percentage (means ± SD) of K^+-release relative to the total cellular K^+-content from duplicates of at least three independent assays.

C. albicans cells [5] = assay: Oxygen consumption measurement (polarographic), C. albicans; format: cell-based, Candida albicans; conditions: after 30 min; defensins 2 x NPIC, human lactoferrin 20 μM, piericidin A 32 µM; preincubated 15 min at 37 °C; untreated cells 94% ± 2%; means ± SD, three experiments
Experimental: as §3

[6] = antimicrobial concentration (≤10% viable cells) that permeabilized ≤10% of cells, 10^6 cells/mL, Tris buffer pH 7.4, 90 min at 37 °C, from Figure 1 data, duplicates of three experiments

B1: human lactoferrin: Recombinant human apo-lactoferrin (hLf), 691 amino acid γ-core protein that inhibits microbial PM H+-ATPases; control (protein, UniProt P02788 20-710, looked up)
Lactotransferrin: GRRRSVQWCAVSQPEATKCFQWQRNMRKVRGPPVSCIKRDSPIQCIQAIAENRADAVTLDGGFIYEAGLAPYKLRPVAAEVYGTERQPRTHYYAVAVVKKGGSFQLNELQGLKSCHTGLRRTAGWNVPIGTLRPFLNWTGPPEPIEAAVARFFSASCVPGADKGQFPNLCRLCAGTGENKCAFSSQEPYFSYSGAFKCLRDGAGDVAFIRESTVFEDLSDEAERDEYELLCPDNTRKPVDKFKDCHLARVPSHAVVARSVNGKEDAIWNLLRQAQEKFGKDKSPKFQLFGSPSGQKDLLFKDSAIGFSRVPPRIDSGLYLGSGYFTAIQNLRKSEEEVAARRARVVWCAVGEQELRKCNQWSGLSEGSVTCSSASTTEDCIALVLKGEADAMSLDGGYVYTAGKCGLVPVLAENYKSQQSSDPDPNCVDRPVEGYLAVAVVRRSDTSLTWNSVKGKKSCHTAVDRTAGWNIPMGLLFNQTGSCKFDEYFSQSCAPGSDPRSNLCALCIGDEQGENKCVPNSNERYYGYTGAFRCLAENAGDVAFVKDVTVLQNTDGNNNEAWAKDLKLADFALLCLDGKRKPVTEARSCHLAMAPNHAVVSRMDKVERLKQVLLHQQAKFGRNGSDCPDKFCLFQSETKNLLFNDNTECLARLHGKTTYEKYLGPQYVAGITNLKKCSTSPLLEACEFLRK
modifications: apo form
notes: control
**Q.** With B1 as the molecule, how does the “effect of high extracellular K+ on candidacidal activity” value ([1]; 50 mM KCl, defensins at NPIC, hLf 5 μM, BM2 0.25 μM, nystatin 50 μM) read?
**A.** significantly decreased

**Q.** And the “non-permeabilizing inhibitory concentration (NPIC), C. albicans” value [1, 6]?
**A.** 5 µM

**Q.** And the “effect of piericidin A on candidacidal activity” value ([1]; cells preincubated 15 min at 37 °C with 32 µM piericidin A, then peptides (NPIC) 90 min)?
**A.** significantly (p < 0.001) inhibited

**Q.** And the “effect of oligomycin A on candidacidal activity” value ([1]; preincubated 15 min at 37 °C with 16 μg/mL oligomycin A, peptides at NPIC)?
**A.** significantly reduced

**Q.** And the “effect of Tok1p inhibition (TEA) on candidacidal activity” value ([1]; preincubation 15 min at 37 °C with 10 mM TEA+, peptides at NPIC)?
**A.** reduced

**Q.** And the “effect of high extracellular K+ on pseudomonacidal activity” value ([2]; 50 mM KCl, defensins at NPIC, hLf 1 μM, colistin 4 μg/mL)?
**A.** decreased

**Q.** And the “non-permeabilizing inhibitory concentration (NPIC), P. aeruginosa” value [2, 6]?
**A.** 1 µM

**Q.** And the “effect of CCCP on bactericidal activity, P. aeruginosa” value ([2]; preincubated 15 min at 37 °C with 50 µM CCCP at pH 7.4, peptides at NPIC)?
**A.** slightly reduced

**Q.** What about the “transmembrane electrical potential (DiBAC4(3) fluorescence)” value (C. albicans cells [3]) of the same molecule?
**A.** increase in DiBAC4(3) fluorescence

**Q.** What about the “O2 consumption of P. aeruginosa” value (P. aeruginosa cells) of the same molecule?
**A.** 87% ± 2%

**Q.** What about the “K^+-efflux pattern in C. albicans” value (C. albicans cells [4]) of the same molecule?
**A.** partial K^+-efflux

**Q.** What about the “oxygen consumption percentage of C. albicans” value (C. albicans cells [5]) of the same molecule?
**A.** 90% ± 3%
